In data set [1] the test system is His-GIV-CT (aa 1660-1870), wild-type, phosphorylated in vitro by recombinant EGFR kinase.
Data set [2] concerns His-GIV-CT Y1764F, phosphorylated in vitro by recombinant EGFR kinase.
Data set [3] concerns His-GIV-CT Y1798F, phosphorylated in vitro by recombinant EGFR kinase.
Chain of His-GIV-CT Y1798F, phosphorylated in vitro by recombinant EGFR kinase (chain, as listed by the source Y1798F): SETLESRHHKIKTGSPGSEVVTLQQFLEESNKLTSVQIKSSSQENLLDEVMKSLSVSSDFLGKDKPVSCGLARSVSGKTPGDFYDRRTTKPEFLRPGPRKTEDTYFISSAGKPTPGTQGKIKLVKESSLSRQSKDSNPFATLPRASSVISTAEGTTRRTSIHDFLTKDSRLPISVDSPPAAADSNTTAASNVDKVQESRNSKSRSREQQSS

Chain of His-GIV-CT (aa 1660-1870), wild-type, phosphorylated in vitro by recombinant EGFR kinase (chain, as listed by the source): as the sequence (chain, as listed by the source Y1798F) above, with F139Y counted along it
Chain of His-GIV-CT Y1764F, phosphorylated in vitro by recombinant EGFR kinase (chain, as listed by the source Y1764F): as the sequence (chain, as listed by the source Y1798F) above, with Y105F, F139Y counted along it

With “GST-SHP-1 C453S (catalytically inactive)”, the “in vitro phosphatase assay: residual tyrosine phosphorylation of His-GIV-CT” value in data set [1] is given as “SHP-1 WT, but not SHP-1 CS dephosphorylated tyrosine-phosphorylated His-GIV-CT in a dose-dependent manner”.
The same measure, in the same setting: the same measure for “GST-SHP-1 (full length, wild-type, human)”: “SHP-1 WT, but not SHP-1 CS dephosphorylated tyrosine-phosphorylated His-GIV-CT in a dose-dependent manner”.
For His-SHP-1 (human, recombinant), the “in vitro phosphatase assay: residual tyrosine phosphorylation of His-GIV-CT mutants” value in data set [2] and in data set [3] was “SHP-1 efficiently dephosphorylated both mutants” throughout. In addition, the “in vitro phosphatase assay: residual tyrosine phosphorylation of His-GIV-CT” value in data set [1] is “SHP-1 efficiently dephosphorylated GIV in a dose-dependent manner”.

The record behind these values is patent US20140234872.
